These results are taken from patent US9314421B2, “Ultrasound-enhanced intrascleral delivery of macromolecules” (The Hong Kong University of Science and Technology, priority 2009, dated 2016).

The conditions of data set [1]: with ultrasound; cited from earlier work.
The format of data set [2] is in vitro ADME, New Zealand White Rabbit. How it is done:
The eyes of New Zealand White Rabbits (6-month to one-year-old) were enucleated immediately after the rabbits were sacrificed. The eyes were kept on ice prior to experiments and the time lag never exceeded 15 minutes to ensure tissue freshness. All the periocular tissues (muscles and conjunctiva) were removed and the optic nerve was sealed with Vaseline®. The eye was immersed in a container filled with 4 ml of 0.1% FITC-BSA or BBS+®. An ultrasound transducer with a probe size of 1 cm^2 (BTL-4000, BTL Industries, Inc., Clark, N.J.) was positioned a few millimeters above the sclera near the equator. The zone of ultrasound application was labeled with a marker. Ultrasound at a therapeutic frequency (1 MHz) and a low power input (0.5 W/cm^2) was applied for 30 seconds. The eye continued to be immersed in 0.1% FITC-BSA or BBS+® for different time intervals (5, 15, 30 and 60 minutes for 0.1% FITC-BSA; 15 minutes for BSS+®). All of the experiments were carried out at room temperature. The scleral surface temperature at the ultrasound application zone before and after treatment was measured using a thermocouple. Controls were performed by immersing the eyes for different time intervals without ultrasound application.
Immediately after the ex vivo experiments, the whole eye was washed and immersed in a mould filled with optimum cutting temperature medium (O.C.T) (Leica, Wetzlar, Germany), followed by quick-freezing in liquid nitrogen. 10 μm thick sections across the marked ultrasound application zone of the eye were cut using a cryostat (CM1850, Leica, Wetzlar, Germany). Polylysine-coated slides were used for collecting the tissue sections.
All images were acquired using a fluorescence microscope (BX 41, Olympus, Center Valley, Pa.). The image of the sclera was captured under optical mode, and FITC-BSA penetration into the sclera was captured under fluorescence mode (bandpass filter: 510-550 nm, dichroic mirror: 570 nm, barrier filter: 590 nm, exposure time: […]). The pictures shown in the FIGS. 15-17 were merged images of these two modes. The thickness of the sclera and the penetration distance of FITC-BSA were obtained using the software SPOT® (Diagnostic Instruments, Inc., MI, USA). For each experiment or control, 2 to 4 eyes from different rabbits were used. Three tissue sections were obtained from each eye and at least 20 measurements on the penetration distance were made in each eye. Only images showing intact sclera were used for measurement to avoid ambiguity.
In the first set of experiments, the parameters of the ultrasound used were set as follows: frequency: 1 MHz, power: 0.5 W/cm^2, application duration: 30 seconds, size of transducer: 1 cm^2. Freshly enucleated New Zealand White Rabbit eyes were used as an ex vivo eye model, and 65 kDa protein fluorescent albumin was used as the model macromolecule. Whole rabbit eyes were immersed in fluorescent albumin solution. Ultrasound was applied for 30 s and then the eyes were kept in fluorescent albumin for 5, 15 or 30 minutes. For the control experiment, the eyes were immersed in fluorescent albumin for 15 minutes without ultrasound application. The eyes were then flash frozen in OCT (Optimum Cutting Temperature) medium with liquid nitrogen and sectioned in cryostat for further investigation.
Briefly, the parameters of the ultrasound were set as follows: frequency: 1 MHz, power: 0.5 W/cm^2, application duration: 30 seconds, size of transducer: 1 cm^2. […]

A short description of data set [3]: Calculation of intrascleral diffusivity from penetration distance versus square root of time. Format: in vitro ADME, New Zealand White Rabbit. Particulars: for intrascleral diffusivity: 37° C. How it is done:
The one-dimensional diffusion model describing the penetration distance (L), diffusivity (D) and time of diffusion (t) is given by the equation below (23): L=√{square root over (2Dt)}. (1)
A plot of the penetration distance versus the square root of time yields a straight line. The diffusivity is calculated from the slope, which equals […].
The diffusivity measured at room temperature is converted to the value at 37° C. according to Stokes-Einstein equation, which gives
[formula] where D and η are diffusivity and viscosity respectively, with the temperature designated at the subscript. Since the experiment was conducted in dilute buffer solution, the viscosity of water is used. Histological Study

Where “and” joins values, the source holds several entries; their conditions need not be identical. Identical values can stand only once.

Consider `O=C([O-])c1ccccc1-c1c2ccc(=O)cc-2oc2cc([O-])ccc12.[Na+].[Na+]` [sodium fluorescein], for which the “enhancement of delivery through the cornea versus passive diffusion” value in data set [1] is “ten times”.
On to “FITC-BSA: 65 kDa protein fluorescent albumin used as the model macromolecule”, for which, in data set [2], the “depth of intrascleral site reached” value was “about 110 μm”, the “increase in percentage of depth of protein penetration versus control” value stood at 4 folds, the “level of penetration (qualitative)” value was “failed to penetrate into the sclera” and the penetration depth was determined as 15.8±5.7 μm. Moreover, the “penetration versus sample without 15-minute BSS+ pretreatment” value in data set [2] was “much lower”. For the same molecule, in data set [3] (0.5 W/cm^2, 1 MHz ultrasound for 30 seconds), the “increase in ocular diffusivity” value was 2 folds. In addition, the intrascleral diffusivity in data set [3] (control without ultrasound) is 3.90×10^−08 cm^2/sec. The intrascleral diffusivity in data set [3] (with ultrasound, first 15 min) is 6.17×10^−8 cm^2/sec and 6.17×10^−08 cm^2/sec. Moreover, the intrascleral diffusivity in data set [3] (with ultrasound, from 15 to 60 min) is reported as 4.18×10^−8 cm^2/sec. In addition, the “increase in diffusivity by ultrasound treatment” value in data set [3] (first 15 minutes, ultrasound versus no ultrasound) is on record as 1.6 times.
